Experimental findings from PMC2752052 are described below.

The data set concerns NC(=O)c1ccc[n+]([C@@H]2O[C@H](COP(=O)([O-])OP(=O)(O)OC[C@H]3O[C@@H](n4cnc5c(N)ncnc54)[C@H](O)[C@@H]3O)[C@@H](O)[C@H]2O)c1. The data set can be described thus: purified protein. The data set is classed as biochemical, Homo sapiens.

The Km is the substrate concentration at which the rate is half of its maximum.

In the case of CD38 (Homo sapiens), the Km turned out to be 17 ± 6 µM.
